Source: patent US20200040092A1 (YISSUM RESEARCH DEVELOPMENT COMPANY OF THE HEBREW …, published 2020)

Columns and labels:
[1] = biological target: T1, human PVR on cells (endogenous on HepG2 and other human tumor cell lines); full-length hPVR overexpressed in … (human, UniProt P15151 21-417); assay: cell-based or functional assay
T1 sequence (looked up): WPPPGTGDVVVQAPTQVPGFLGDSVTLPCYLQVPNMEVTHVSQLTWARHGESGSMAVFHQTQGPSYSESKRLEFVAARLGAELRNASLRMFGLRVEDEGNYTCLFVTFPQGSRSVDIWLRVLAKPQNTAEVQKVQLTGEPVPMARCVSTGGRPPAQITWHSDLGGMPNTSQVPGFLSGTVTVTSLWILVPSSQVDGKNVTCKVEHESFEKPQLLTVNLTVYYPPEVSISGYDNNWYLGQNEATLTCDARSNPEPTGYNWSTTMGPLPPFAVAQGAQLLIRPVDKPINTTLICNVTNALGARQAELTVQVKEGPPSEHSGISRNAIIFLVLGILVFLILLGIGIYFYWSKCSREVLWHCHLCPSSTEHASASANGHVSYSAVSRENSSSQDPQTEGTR

[2] = biological target: T2, hNectin-2 on cells (CHO cells expressing hNectin-2); RPMI-8866 cells overexpressing hNectin-2; human tumor … (human, UniProt Q92692 32-538); assay: FACS on the CHO cells expressing hNectin-2 of FIG. 7C
T2 construct: whole, on cells
T2 sequence (looked up): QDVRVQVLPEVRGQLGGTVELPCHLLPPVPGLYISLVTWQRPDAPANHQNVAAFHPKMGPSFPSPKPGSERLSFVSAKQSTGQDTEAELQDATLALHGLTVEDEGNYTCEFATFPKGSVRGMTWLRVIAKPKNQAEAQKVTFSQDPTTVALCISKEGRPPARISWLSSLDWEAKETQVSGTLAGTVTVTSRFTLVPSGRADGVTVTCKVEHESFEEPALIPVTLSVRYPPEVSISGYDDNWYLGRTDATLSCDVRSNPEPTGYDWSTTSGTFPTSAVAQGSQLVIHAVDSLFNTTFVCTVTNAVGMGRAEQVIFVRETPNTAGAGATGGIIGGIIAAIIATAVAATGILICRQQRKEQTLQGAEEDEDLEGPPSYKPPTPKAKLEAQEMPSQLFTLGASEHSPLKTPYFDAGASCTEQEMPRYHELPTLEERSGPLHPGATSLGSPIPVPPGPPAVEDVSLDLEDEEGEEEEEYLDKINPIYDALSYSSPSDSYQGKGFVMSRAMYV

[3] = biological target: T1, human PVR on cells (endogenous on HepG2 …); assay: cell-based or functional assay; remark: listed apart in the source
[4] = biological target: T3, human PVR on cells (endogenous on HepG2 and other human tumor cell lines; full-length hPVR overexpressed in B16 cells) (human), P15151; assay: FACS on B16-hPVR cells, anti-human-IgG APC detection; conditions: remark: other sources report otherwise
T3 chain: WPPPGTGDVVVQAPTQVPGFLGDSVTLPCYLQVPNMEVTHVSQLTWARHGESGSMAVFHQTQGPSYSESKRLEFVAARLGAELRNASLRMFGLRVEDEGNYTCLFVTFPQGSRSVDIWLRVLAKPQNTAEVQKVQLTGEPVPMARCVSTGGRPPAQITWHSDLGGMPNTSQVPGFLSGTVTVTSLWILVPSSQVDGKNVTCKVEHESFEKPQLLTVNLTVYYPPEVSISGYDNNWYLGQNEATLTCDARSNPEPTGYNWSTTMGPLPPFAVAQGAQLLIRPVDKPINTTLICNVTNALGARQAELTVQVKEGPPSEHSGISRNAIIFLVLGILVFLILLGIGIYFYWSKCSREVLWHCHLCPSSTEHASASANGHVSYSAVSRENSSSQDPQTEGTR

B1: anti-PVR monoclonal antibody 5B9 (antibody, mouse IgG1, V domains shown)
VH: QVQLQQSGAELMKPGASVKISCKATGYTFSNYWIEWIKQRPGHGLEWIGEIFPGSGRINFNEKFKGKATFTADTSSDTTYMQLSSLTSADSAVYYCARTKIYGNSFDYWGQGTTLTVSP
VL: DIMMTQSHKFMSTSVGDRVNITCKASQDVGTAVVWYQQKPGQSPKLLIYWASSRHNGVPDRFTGSGSGTDFTLTISNVQSEDLSDYFCQQYSRYPLTFGAGTKLELK
notes: also called hPVR.09; PVR.09
Q: What does the source list for B1?
A: Percentage of dead cells within 24 hrs relative to mIgG treated cells (MTT), A549 [1]: 25%; Percentage of dead cells within 24 hrs relative to mIgG treated cells (MTT), HCT-116 [1]: 22%; Percentage of dead cells within 24 hrs relative to mIgG treated cells (MTT), MDA-MB-231 [1]: 20%; Percentage of dead cells within 24 hrs relative to mIgG treated cells (MTT), Mel-624 [1]: 32%; binding result [2]: no binding

B2: anti-PVR monoclonal antibody 4E5 (antibody, mouse IgG1, V domains shown)
VH: EVKLLESGGGLVQPGGSLKLSCAASGFDFSRYWMTWVRQAPGKGLEWIGEIHPDSSKINYTPSQKDKFIISRDNAKNTLFLQMSKVRFEDTALYFCARPDGNYNALDYWGQGTSVTVSS
VL: DIVMTQSHKFMSTSVGDRVSITCKASQDVGTAVTWYQQKPGQSPKLLIYWASTRHTGVPDRFTGSESGTDFTLTISDVQSEDLANYFCQQYSRYPYTFGGGTKLEIK
notes: also called hPVR.07; PVR.07
Q: Does B2 bind [2]?
A: Result: no binding

B3: anti-PVR monoclonal antibody 7D4 (antibody, mouse IgG1, V domains shown)
VH: EVQLQQSGPELVKPGASVKISCKTSGYTFTEYTMHWVKQSHGESLEWIGGIDPNNGGTNYNQNFKGKATLTVDKSSSTAYMELRSLTSEDSAVYYCAGVIPLEYWGQGTSVTVSS
VL: DIVMTQSQKFMSTSVGDRVSVTCKASQNVYTNVAWYQQKPGQSPKALIYSASYRYRGVPDRFTGSGSGTDFTLTISNVQSEDLADYFCQQYNSYPLAFGSGTKLEIK
notes: also called hPVR.01; PVR.01
Q: B3 was tested. Which “NK cell killing of the human breast adenocarcinoma cell line MDA-MB-231 ([35S]-Methionine release, specific killing)” value [3] did it give?
A: Its value is 2 fold.

Q: Does B3 bind [2]?
A: Result: no binding

B4: Human TIGIT-Fc, Q495A1 22-141 (Fc fusion, UniProt Q495A1 22-141, looked up, not shown: a dimerising Fc or GST)
chain: MMTGTIETTGNISAEKGGSIILQCHLSSTTAQVTQVNWEQQDQLLAICNADLGWHISPSFKDRVAPGPGLGLTLQSLTVNDTGEYFCIYHTYPDGTYTGRIFLEVLESSVAEHGARFQIP
Q: With B4 as the binder, how does the fold signal against DNAM-1-Fc [4] read?
A: Its fold signal against DNAM-1-Fc is 2 to 4 fold.
